B1: Zinc finger protein GLIS2 (Homo sapiens), Q9BZE0 (parent)
chain: MHSLDEPLDLKLSITKLRAAREKRERTLGVVRPRALHRELGLVDDSPTPGSPGSPPSGFLLNSKFPEKVEGRFSAAPLVDLSLSPPSGLDSPNGSSSLSPERQGNGDLPPVPSASDFQPLRYLDGVPSSFQFFLPLGSGGALHLPASSFLTPPKDKCLSPDLPLPKQLVCRWAKCNQLFELLQDLVDHVNDYHVKPEKDAGYCCHWEGCARHGRGFNARYKMLIHIRTHTNEKPHRCPTCSKSFSRLENLKIHNRSHTGEKPYVCPYEGCNKRYSNSSDRFKHTRTHYVDKPYYCKMPGCHKRYTDPSSLRKHIKAHGHFVSHEQQELLQLRPPPKPPLPAPDGGPYVSGAQIIIPNPAALFGGPGLPGLPLPLAPGPLDLSALACGNGGGSGGGGGMGPGLPGPVLPLNLAKNPLLPSPFGAGGLGLPVVSLLAGAAGGKAEGEKGRGSVPTRALGMEGHKTPLERTESSCSRPSPDGLPLLPGTVLDLSTGVNSAASSPEALAPGWVVIPPGSVLLKPAVVN

Variants of: B1
Conditions: with ctnb1_human CTNNB1, P35222
Sequence of ctnb1_human CTNNB1, P35222 (P35222 whole entry): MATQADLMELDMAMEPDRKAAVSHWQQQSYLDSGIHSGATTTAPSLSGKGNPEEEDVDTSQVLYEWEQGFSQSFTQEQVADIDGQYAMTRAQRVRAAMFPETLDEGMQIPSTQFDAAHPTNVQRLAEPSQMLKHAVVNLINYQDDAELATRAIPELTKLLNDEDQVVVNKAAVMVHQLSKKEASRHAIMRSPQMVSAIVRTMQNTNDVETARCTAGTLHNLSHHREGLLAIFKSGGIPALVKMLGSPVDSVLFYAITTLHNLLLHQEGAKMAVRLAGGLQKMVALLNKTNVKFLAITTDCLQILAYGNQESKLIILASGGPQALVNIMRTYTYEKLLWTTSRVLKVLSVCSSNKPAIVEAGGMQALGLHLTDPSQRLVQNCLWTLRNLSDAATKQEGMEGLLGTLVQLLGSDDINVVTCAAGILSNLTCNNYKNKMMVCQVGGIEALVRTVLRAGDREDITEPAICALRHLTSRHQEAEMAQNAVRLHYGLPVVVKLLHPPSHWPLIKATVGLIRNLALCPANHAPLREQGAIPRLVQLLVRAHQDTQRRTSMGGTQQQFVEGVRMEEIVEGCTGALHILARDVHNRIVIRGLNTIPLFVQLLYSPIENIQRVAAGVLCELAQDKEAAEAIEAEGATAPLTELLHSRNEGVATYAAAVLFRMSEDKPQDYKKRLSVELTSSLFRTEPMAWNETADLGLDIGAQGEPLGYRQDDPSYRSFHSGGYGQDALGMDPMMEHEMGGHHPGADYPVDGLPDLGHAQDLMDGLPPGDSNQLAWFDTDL

| Variant | effect of a mutation on the interaction |
| --- | --- |
| MHSLDEPLDLKLSITKLRAAREKRERTLGVVRPRALHRELGLVDDSPTPGSPGSPPSGFLLNSKFPEKVEGRFSAAPLVDLSLSPPSGLDSPNGSSSLSPERQGNGDLPPVPSASDFQPLRYLDGVPSSFQFFLPLGSGGALHLPASSFLTPPKDKCLSPDLPLPKQLVCRWAKANQLFELLQDLVDHVNDYHVKPEKDAGYCCHWEGCARHGRGFNARYKMLIHIRTHTNEKPHRCPTCSKSFSRLENLKIHNRSHTGEKPYVCPYEGCNKRYSNSSDRFKHTRTHYVDKPYYCKMPGCHKRYTDPSSLRKHIKAHGHFVSHEQQELLQLRPPPKPPLPAPDGGPYVSGAQIIIPNPAALFGGPGLPGLPLPLAPGPLDLSALACGNGGGSGGGGGMGPGLPGPVLPLNLAKNPLLPSPFGAGGLGLPVVSLLAGAAGGKAEGEKGRGSVPTRALGMEGHKTPLERTESSCSRPSPDGLPLLPGTVLDLSTGVNSAASSPEALAPGWVVIPPGSVLLKPAVVN [C175A] | disrupting interaction |

Reference: IntAct's records for PubMed 17289029
